This data set deals with the molecule itself. The data set can be described thus: cryo-EM structure.

These results are taken from publication doi:10.1101/2024.09.24.614577 (bioRxiv, 2024).

B1: human GPR155 (residues 1-870), construct without the eGFP tag (receptor, UniProt Q7Z3F1 1-870, looked up)
chain: MNSNLPAENLTIAVNMTKTLPTAVTHGFNSTNDPPSMSITRLFPALLECFGIVLCGYIAGRANVITSTQAKGLGNFVSRFALPALLFKNMVVLNFSNVDWSFLYSILIAKASVFFIVCVLTLLVASPDSRFSKAGLFPIFATQSNDFALGYPIVEALYQTTYPEYLQYIYLVAPISLMMLNPIGFIFCEIQKWKDTQNASQNKIKIVGLGLLRVLQNPIVFMVFIGIAFNFILDRKVPVYVENFLDGLGNSFSGSALFYLGLTMVGKIKRLKKSAFVVLILLITAKLLVLPLLCREMVELLDKGDSVVNHTSLSNYAFLYGVFPVAPGVAIFATQFNMEVEIITSGMVISTFVSAPIMYVSAWLLTFPTMDPKPLAYAIQNVSFDISIVSLISLIWSLAILLLSKKYKQLPHMLTTNLLIAQSIVCAGMMIWNFVKEKNFVGQILVFVLLYSSLYSTYLWTGLLAISLFLLKKRERVQIPVGIIIISGWGIPALLVGVLLITGKHNGDSIDSAFFYGKEQMITTAVTLFCSILIAGISLMCMNQTAQAGSYEGFDQSQSHKVVEPGNTAFEESPAPVNEPELFTSSIPETSCCSCSMGNGELHCPSIEPIANTSTSEPVIPSFEKNNHCVSRCNSQSCILAQEEEQYLQSGDQQLTRHVLLCLLLIIGLFANLSSCLWWLFNQEPGRLYVELQFFCAVFNFGQGFISFGIFGLDKHLIILPFKRRLEFLWNNKDTAENRDSPVSEEIKMTCQQFIHYHRDLCIRNIVKERRCGAKTSAGTFCGCDLVSWLIEVGLASDRGEAVIYGDRLVQGGVIQHITNEYEFRDEYLFYRFLQKSPEQSPPAINANTLQQERYKEIEHSSPPSHSPKT
Usually stoichiometry N stands for a count of units in the complex or per binding partner. For B1, the “stoichiometry N” value came to 2.
